Test: label from the status in PepcDB records

Question: Which protein production does the source give for “SGARRQALIDAQSWRLRYERIMREVGVATVEYEAASGRATWGMGAGKVLGEDVARISSLDEWLEHIAPDERGLVEATWSSVASGETWASEQSYTLMRTDGEPLRVRERLACVRGADDSVEMVVGMLRPEPLESGDG” here?
Answer: Its protein production is “failed”.

Question: Which protein production does the source give for “MARKRLIIEMGMGIDQHGQEPTIAASRAVRNAIAHNALPGVWEVAGLSHPNEMIIEVQVAVPYPEQVREEEVLAVLPFGRKTLTVESGGMIVQGRAIPELNDKNDEMLIAIAAVTVLIENE” here?
Answer: The protein production was “not failed”.

Question: With “MTLMVPFKQVDVFTEKPFMGNPVAVINFLEIDENEVSQEELQAIANWTNLSETTFLFKPSDKKYDYKLRIFTPRSELPFAGHPTIGSCKAFLEFTKNTTATSLVQECKIGAVPITINEGLISFKAPMADYESISSEMIADYEKAIGLKFIKPPALLHTGPEWIVALVEDAETCFNANPNFAMLAHQTKQNDHVGIILAGPKKEAAIKNSYEMRAFAPVINVYEDPVCGSGSVALARYLQEVYKFEKTTDITISEGGRLKRNGLMLASIKKEADNSTSYYIAGHATTVIDGKIKV” as the sequence, how does the protein production read?
Answer: The protein production was “not failed”.

Question: With “MMTFNLREQQKRLQARMDELRAEIAFAQKGEKPWPYRSCLMREGRGYCEKHGEYHTHILVWSDRNGEDREEISCCPDCLIAEANDLTMELSSIKAEELTDNAGIALRFRDCEFDNYLEVNPGAARNLAACRRYAENWPDMLENGTSLVMTGSCGTGKNHLAVAMAKHIIRNYLASVEITDVMRLTRAVKNCWRNDSEKTADEVIERYASMDLLIIDEVGVQFGSAAEMAILQEIINARYESILPTILISNLSPEELWAFISPRIADRITDGGRNWLSFNWPSYRSRIRGVAALEHHHHHH” as the sequence, how does the protein production read?
Answer: The protein production was “failed”.

Question: Which protein production does the source give for “MAKTDRSQPSVLARIAAFRTGLSAEASAADYLERQGYRILARRFKTRCGEIDLVAQRDALVAFVEVKARGNVDDAAYAVTPRQQSRIVAAAEAWLSRHPEHAMSELRFDAILIAPNTAPRHLPGAFDATP” here?
Answer: The protein production was “not failed”.

Question: Which protein production does the source give for “MPEAPGDTPLALDLLRRLRRALGAAGLPELEAWDLLAAATGWPRKALYGRLTSPLPQEALDRAEALLKRRLQGYPLQYLVGEVEFFGLPLRVEEGVLIPRPETEGLVELALGLPLPPAPRILDVGTGTGAIALALKRALPEAEVYATEVDPKALALARENAERLGLAVVFLPAPLTGGLKDLDLVVSNPPYLPEAYREKAPRELGYESPLALYAGPEGLSVARPLAEEARRSLKPGGYLLLELAPENVHLLARELREKGWKEVAVLPDLAGRDRYLRARRPPEEAEGEEGRLHRPHLPQSLHPHPDHPGPPPEEEEALGQVRLRGEAGVLRGHALLQKALPDPFPHLQEDGPGPGLPRVEEGGAGENLPRGPQALFRVKAGPDEEDAVLVPRPLQDGKPRALGPAEKPHALEAQEEGPPPGRLFQRHGALLRAQAHLPQVEPLAQAGEAFCELALLPLQHPGLDEEALDPPLLLGELLAHPGQGLPEPGGLLLQNLPGAP” here?
Answer: Its protein production is “failed”.

Question: For “MKKGTDLLKKGFAKMVKHGVVMDVTNVEQAQIAEEAGAVAVMALERVPADIRAAGGVARMSDPALIEEIMDAVSIPVMAKCRIGHTTEALVLEAIGVDMIDESEVLTQADPFFHIYKKKFNVPFVCGARNLGEAVRRIWEGAAMIRTKGEAGTGNIVEAVRHMRLMNEAIAQLQRMTDEEVYGVAKFYANRYAELAKTVREGMGLPATVLENEPIYEGFTLAEIIDGLYEVLLEVKKLGRLPVVNFAAGGVATPADAALMMQLGSDGVFVGSGIFKSENPLERARAIVEATYNYDKPDIVAEVSKNLGEAMKGIDITQISEAEKMQYRGD”, which protein production is on record?
Answer: The protein production was “not failed”.

Question: For “MRAHTLSRQLREGNLFAEQCPSREVLKHVTSRWGVLILVALRDGTHRFSDLRRKMGGVSEKMLAQSLQALEQDGFLNRVSYPVVPPHVEYSLTPLGEQVSDKVAALADWIELNLPQVLAQRERLSDGG”, which protein production is on record?
Answer: The protein production was “not failed”.

Question: With “MIIGCSASQKLAASVADLLDEPLCPVETRKFPDGERYIRVKEEVEGEVTVVQSTGYPQDENLMELLFMIENLKDLGADYVRAAIPYFGYGRQERRFKSGEAVSAKIVAHLLEAAGADEIVTVNLHENCLSEFFRVPVRELSAMPLIAEHISFLDDPVIIAPDKGALGHAREVSDILGCECDYMEKVRISPEVVETRVSDLDVEGKDAVVVDDIISTGGTIVNAAGILGKCGASSITVCCVHPVLVEDALLKIFSAGVERVIATDTLKSDVSEISVAPLIADVMKD” as the sequence, how does the protein production read?
Answer: Its protein production is “failed”.

Question: With “MFREFINLLFMQFKMIKAYLPVFIFFSILFPLGFIFSFGTIIQRTLSTYLISGSITFFISINSIISVAQNLALERSSGRFSLMIASGIPIQLYAISITISNGIQTLMLIPVFLVLGYFLLGVRISSALFFVLSIIGSIYMASMVGLLIGTAIRNLHAVNQWSSIIGFILSFFAPVYFPLTQIPLPFRYLAYLEPTTYVSQSTYFALVGNPISLAWFGGTVVIGFLFSFLSSLLMKKAF” as the sequence, how does the protein production read?
Answer: The protein production was “failed”.

Question: With “MTTLVLRAKRWLYLLHRWMGVGLCLLFVLWFASGVVMMYVGYPNLTPAERLAHLPGLDAAQVRLGPAQALRAAGLEQAAEIRLAASRAGQPFYAVVPLAGGRTLRVDAASGQLAGRATPAQARASALAYFGARHAAREGGLVSEDAHTHTRTLDEHRPLYVFEMDDPARTRLYVSSSTGEVVRDAPRLERGWNYVGAWLHWLYPLRGAYWHDIVVWLSVLGVALTVSGTVVGLWRWRFARPYASGSRSPYRERFMRWHHIAGLLFAATTLTWIFSGLMSMNPWQVFGTRATQLDRAAYRGGPLQADNLPAGPAVAMPARKLVWTRVAGQTLLQVYGAAGAPALRTADGAAPRTLAPATLGVALGRLLPSAAPPRIEVLDGYDSYYYARAPHTMLGHVEKPLPVWRVVYDDPRGTWLHVDPRSGEILGSLDRPRRVSRWLFAFLHSWDWPPLLQRRPAWDAVLIVLSLGGLLLSGAGVVIGWRRVGRKLR” as the sequence, how does the protein production read?
Answer: Its protein production is “failed”.

Question: With “MSLNERILLVDDDYSLLNTLKRNLSFDFEVTTCESGPEALACIKKSDPFSVIMVDMRMPGMEGTEVIQKARLISPNSVYLMLTGNQDLTTAMEAVNEGQVFRFLNKPCQMSDIKAAINAGIKQYDLVTEGHHHHHH” as the sequence, how does the protein production read?
Answer: Its protein production is “not failed”.

Question: With “MTRRGVALVARRLPSSPGRVYAVKIDEGEDVHSVLSSLAEAEDLGFAMVTGIGGMAEATVAFYSPPEATYYTVDVKPPEGRVIEVAAMTGNIVKTSQGYSVHIHVALGVSPGKSISGHLVKGVVKPFMEVFVVELVSGQGTPGTSVFDHREGFKASYKRLELEHHHHHH” as the sequence, how does the protein production read?
Answer: Its protein production is “failed”.

Question: With “MVDFKVVLSDPKTGLSYKIDAAGAAAGALLGKKIGTEVDGAPFGMSGYKITITGGSDKTGTPARPDLPGNGRRGLLISDGFGFNATHNGERRRKSQRGNEIAADFVQVNAKITVYGEKPVTEIFAAAAE” as the sequence, how does the protein production read?
Answer: Its protein production is “failed”.

Question: Which protein production does the source give for “MAAQAAAAAQAAAAAQAAAAQAAQAEAAESWYLALLGFAEHFRTSSPPKIRLCVHCLQAVFPFKPPQRIEARTHLQLGSVLYHHTKNSEQARSHLEKAWLISQQIPQFEDVKFEAASLLSELYCQENSVDAAKPLLRKAIQISQQTPYWHCRLLFQLAQLHTLEKDLVSACDLLGVGAEYARVVGSEYTRALFLLSKGMLLLMERKLQEVHPLLTLCGQIVENWQGNPIQKESLRVFFLVLQVTHYLDAGQVKSVKPCLKQLQQCIQTISTLHDDEILPSNPADLFHWLPKEHMCVLVYLVTVMHSMQAGYLEKAQKYTDKALMRLEKLKMLDCSPILSSFQVILLEHIIMCRLVTGHKATALQEISQVCQLCQQSPRLFSNHAAQLHTLLGLYCVSVNCMDNAEAQFTTALRLTNHQELWAFIVTNLASVYIREGNRHQELYSLLERINPDHSFPVSSHCLRAAAFYVRGLFSFFQGRYNEAKRFLRETLKMSNAEDLNRLTACSLVLLGHIFYVLGNHRESNNMVVPAMQLASKIPDMSVQLWSSALLRDLNKACGNAMDAHEAAQMHQNFSQQLLQDHIEACSLPEHNLITWTDGPPPVQFQAQNGPNTSLASLL” here?
Answer: Its protein production is “failed”.

Question: For “MAKGDQYQAHTEKYHDKKSKKSYKPVWIIISFIILITILLLPTPAGLPVMAKAALAILAFAVVMWVTEAVTYPVSATLILGLMILLLGLSPVQDLSEKLGNPKSGDIILKGSDILGTNNALSHAFSGFSTSAVALVAAALFLAVAMQETNLHKRLALLVLSIVGNKTRNIVIGAILVSIVLAFFVPSATARAGAVVPILLGMIAAFNVSKDSRLASLLIITAVQAVSIWNIGIKTAAAQNIVAINFINQNLGHDVSWGEWFLYAAPWSIIMSIALYFIMIKFMPPEHDAIEGGKELIKKELNKLGPVSHREWRLIVISVLLLFFWSTEKVLHPIDSASITLVALGIILMPKIGVITWKGVEKKIPWGTIIVFGVGISLGNVLLKTGAAQWLSDQTFGLMGLKHLPIIATIALITLFNILIHLGFASATSLASALIPVFISLTSTLNLGDHAIGFVLIQQFVISFGFLLPVSAPQNMLAYGTGTFTVKDFLKTGIPLTIVGYILVIVFSLTYWKWLGLV”, which protein production is on record?
Answer: The protein production was “failed”.

Question: Which protein production does the source give for “MRGVSELEVGKSNLPAESELELGLGLSLGGGAWKERGRILTAKDFPSVGSKRSAESSSHQGASPPRSSQVVGWPPIGLHRMNSLVNNQAMKAARAEEGDGEKKVVKNDELKDVSMKVNPKVQGLGFVKVNMDGVGIGRKVDMRAHSSYENLAQTLEEMFFGMTGTTCREKVKPLRLLDGSSDFVLTYEDKEGDWMLVGDVPWRMFINSVKRLRIMGTSEASGLAPRRQEQKDRQRNNPV” here?
Answer: The protein production was “failed”.

Question: Which protein production does the source give for “QAQITGRPEWIWLALGTALMGLGTLYFLVKGMGVSDPDAKKFYAITTLVPAIAFTMYLSMLLGYGLTMVPFGGEQNPIYWARYADWLFTTPLLLLDLALLVDADQGTILALVGADGIMIGTGLVGALTKVYSYRFVWWAISTAAMLYILYVLFFGFTSKAESMRPEVASTFKVLRNVTVVLWSAYPVVWLIGSEGAGIVPLNIETLLFMVLDVSAKVGFGLILLRSRAIFGEAEAPEPSAGDGAAATS” here?
Answer: The protein production was “not failed”.

Question: With “MSIIEDNKISFVIPTINEEKTIGSVIDGIHENFPNAEIILVDTNSTDKTKEIAKSKGATVIEEPRKGYGRAYQTGIPAAKGDIIVCMDGDGTYPTDIVKPLIEILILDKVDFISCDRITFRTSTNYTTLHYVGNMVLNLTIRILFKVRMVDSQSGMWIFRSELYKKMKNLGYGMSFSQNIKIEAVRHGVFIEIPIRYGVRITKPKLKTWHDGFHNLFALFIKRVSELEHHHHHH” as the sequence, how does the protein production read?
Answer: Its protein production is “not failed”.

Question: For “MAMVVGVAMGNIALGAETVGQINEAYKTKPMLKKPLDECSMRYKTIVDVDVHTAIISIKGNPKFAEGAVVDAGVEASICEGGFTKGQSPLTSLTQRMEKICDVTRAIIRMLL”, which protein production is on record?
Answer: The protein production was “failed”.

Question: With “DSTGKTKTAYDFSAGGISPDAPLVVLFHGLEGSSRSHYAVELMLAVRNRGWHGAVVHFRSCGGVANTAPVFYHLGDTAEIAFALDTLTARYREIYAVGVSLGGNAPAKYLGEQGKKALPHASAAVSAPVDAEAAGSRFDSGITRLLYTRYFLRTLIPKARSLQGFQTAFAAGCKTLGEFDDRFTAPLHGFADRHDYYRQTSCKPLLKHVAKPLLLLNAANDPFLPPEALPRADEASEAVTLFQPAHGGHAGFVSST” as the sequence, how does the protein production read?
Answer: Its protein production is “failed”.

Question: Which protein production does the source give for “MESLDSVSIAILLGSVLVMAGILSSLLALRFGAPLLLVFLVIGILAGESGPGGINFNDLGTTYLVGSVALALILFDGGLKTRFSSIKAVLAPSMGLATVGVLLTALVTAPVARYALDLSWVEALLASAVVASTDAAAVFLLVHAQGLRLRPRVGATLEVESGTNDPFAVFLTLMLVELITRGESSILHVLIEFVREAALGAVIGVVGGRVVVMALNRVALPQGLHAPFVTTAALVVFGAAQMSHASGFLAVYLAGMIIGNQPTRAHNSVVAFLDAATWLAQIVMFVLLGLLVSPQRLMGSIGPAVVIALALMLVARPLAVFICLAPFRFNWRERLFIAWVGLRGAVAIFLASIPMLVGLSKAYLYFDVAFVVVLISLMLQGWTLAPAARKLLVALPRSDRGPRRIELDLPGQLEQQLVGYAVRPKSLYLKRGLIPSWSKPTLVIRDQRILTPEEAEPVAPGDYVYLLAPPEKAAALDRFFVDMPPSTAPDPHLLGDFIVPGETSLGDLAAAYGISVPPGQEALTLADYFDIYLDQAPMVGATLPLDSIVLVARSLGGGRVNVVGLRLPEEEDEAPPPTRLAKVRTKLSEVWSLLAGV” here?
Answer: Its protein production is “failed”.
